One experiment addresses EGFR His antigen (UniProt P00533 25-645). The experiment can be described thus: SPR as in Example 2, EGFR His antigen.
Experiment [1] has as its target T1, EGFR expressed on cells (UniProt P00533 25-1210, limits assumed).
T1 construct: whole, on cells; also called HEK293T-EGFR cell line; EGFR over-expressing cells
Briefly: flow cytometry on HEK293T-EGFR cells (cell line from paragraph 185); unit taken from the axis 'Concentration (nM)'. Background: In flow cytometry, cells or beads pass a laser one at a time.

Another experiment deals with T2, BCMA-His antigen (UniProt Q02223 1-54).
T2 construct: also called BMCA antigen
T2 sequence (looked up): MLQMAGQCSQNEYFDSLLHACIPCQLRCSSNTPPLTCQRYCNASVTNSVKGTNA
Briefly: SPR as in Example 2, BCMA-His antigen.

The next experiment addresses T3, BCMA expressed on cells (UniProt Q02223 1-184, limits assumed).
T3 construct: whole, on cells; also called CHOK1-BCMA cell line; BCMA over-expression cell line
T3 sequence (looked up): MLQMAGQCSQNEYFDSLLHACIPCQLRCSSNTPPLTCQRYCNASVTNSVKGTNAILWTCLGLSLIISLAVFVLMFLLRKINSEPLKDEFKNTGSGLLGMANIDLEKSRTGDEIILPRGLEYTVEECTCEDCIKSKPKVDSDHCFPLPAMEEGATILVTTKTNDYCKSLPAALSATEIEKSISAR
Briefly: flow cytometry on CHOK1-BCMA cells; unit taken from the axis 'Concentration (nM)'.

The target of experiment [2] is mesothelin (MSLN) expressed on cells (UniProt Q13421). The experiment can be described thus: flow cytometry on 293T-MSLN-Full cells; unit taken from the axis 'Conc.(nM)'.
mesothelin (MSLN) expressed on cells, sequence (Q13421 other isoform, or with tags, fused parts or gaps limits assumed): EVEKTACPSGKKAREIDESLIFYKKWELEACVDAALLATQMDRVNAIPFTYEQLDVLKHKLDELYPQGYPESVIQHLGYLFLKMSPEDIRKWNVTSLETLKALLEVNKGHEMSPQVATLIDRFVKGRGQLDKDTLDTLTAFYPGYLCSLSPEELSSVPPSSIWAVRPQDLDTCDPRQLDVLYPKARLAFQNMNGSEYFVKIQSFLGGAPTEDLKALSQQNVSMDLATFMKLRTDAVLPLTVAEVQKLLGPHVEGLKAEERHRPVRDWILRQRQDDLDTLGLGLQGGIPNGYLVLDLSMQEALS
For experiment [3], the target named is T1, EGFR expressed on cells. Briefly: flow cytometry on 293T-EGFR cells; unit taken from the axis 'Conc.(nM)'.
In a further experiment the target is T4, CD19 expressed on cells (UniProt P15391 20-556, limits assumed).
T4 construct: whole, on cells; also called CD19 over-expression cell line; CD19 over-expressing cells
T4 sequence (looked up): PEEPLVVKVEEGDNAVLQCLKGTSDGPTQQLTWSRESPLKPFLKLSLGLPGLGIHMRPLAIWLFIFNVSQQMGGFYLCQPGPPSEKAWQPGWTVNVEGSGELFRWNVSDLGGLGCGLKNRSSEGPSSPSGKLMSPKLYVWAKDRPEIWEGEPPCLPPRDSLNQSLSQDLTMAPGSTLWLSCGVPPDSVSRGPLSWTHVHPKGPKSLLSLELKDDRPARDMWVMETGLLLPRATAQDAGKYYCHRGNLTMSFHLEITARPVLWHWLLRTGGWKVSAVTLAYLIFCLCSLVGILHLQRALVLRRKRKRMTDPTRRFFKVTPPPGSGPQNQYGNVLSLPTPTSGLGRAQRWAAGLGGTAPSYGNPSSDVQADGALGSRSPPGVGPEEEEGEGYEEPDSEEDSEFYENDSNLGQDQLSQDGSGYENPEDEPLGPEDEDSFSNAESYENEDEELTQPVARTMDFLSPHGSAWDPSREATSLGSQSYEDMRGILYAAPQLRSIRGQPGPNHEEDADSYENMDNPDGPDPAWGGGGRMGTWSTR
The experiment can be described thus: flow cytometry on CHO/K1-CD19 cells; unit taken from the axis 'Conc.(nM)'; the curve is still rising at the last point (MFI about 5000 at about 400 nM).

For orientation: Kd means the equilibrium constant for the complex coming apart. Higher therefore signals a looser complex. As usually defined, the koff is a measure of how fast the partners let go of each other. A low value points to slow dissociation. As a reminder, the kon is the second-order rate constant of association. Read a low kon as slower complex formation. The EC50 is the midpoint of the concentration-response curve.

B1: E454(VHH), hFc fusion (Fc fusion)
chain: QVQLVESGGGLVQPGGSLNLSCAASGFDFSSVTMSWHRQSPGKERETVAVISNIGNRNVGSSVRGRFTISRDNKKQTVHLQMDNLKPEDTGIYRCKAWGLDLWGPGTQVTVSS
notes: also called anti-EGFR VHH (E454(VHH)); not shown: human Fc
Regarding B1, in the experiment with EGFR His antigen, the Kd amounted to 1.27 nM, the koff is 2.48e-05 s⁻¹ and the association rate constant (kon) is 19500 M⁻¹ s⁻¹. In the experiment with EGFR expressed on cells [1], this molecule had an EC50 of 6.51 nM.

B2: B029(VHH), hFc fusion (Fc fusion)
chain: QVQLVESGGGLVQPGGSLRLSCAASGSITSIYAIGWYRQAPGKLRELVAAITTSGNTFYRDSVKGRFTISRDNAKNTVSLQMNSLKSEDTAVYDCNGAPWGDHAPLVVSWDQGTQVTVSS
notes: not shown: human Fc
In the experiment with BCMA-His antigen, B2 gave a Kd of 0.125 nM, a koff of 0.000365 s⁻¹ and a kon of 2.92e+06 M⁻¹ s⁻¹. Further, in the experiment with BCMA expressed on cells, the EC50 was found to be 1.68 nM.

B3: TCP021-P (bispecific antibody)
chain: QLQLGASGGGLVQPGGSLRLSCALSGFTLRELDEFAIGWFRQAPGKEREGVSCISGTGGITHYADSVKGRFTISRDIAKTTVYLQMNSLNSEDTAVYYCAADERCTDRLIRPPTYWGQGTQVTVSSGGGGSGGGGSGGGGSQVQLVESGGGLVQPGGSLNLSCAASGFDFSSVTMSWHRQSPGKERETVAVISNIGNRNVGSSVRGRFTISRDNKKQTVHLQMDNLKPEDTGIYRCKAWGLDLWGPGTQVTVSSGGGGSEQKLISEEDLGGGGSHHHHHH
notes: also called EGFR-TCP; anti-M-ICAP VHH (M2339) - 3xGGGGS linker - anti-EGFR VHH (E454(VHH)) - Myc and HIS
For B3, the EC50 turned out to be 35.6 nM in experiment [2] and 28.6 nM with EGFR expressed on cells [3].

B4: TCP011-P (bispecific antibody)
chain: QLQLGASGGGLVQPGGSLRLSCALSGFTLRELDEFAIGWFRQAPGKEREGVSCISGTGGITHYADSVKGRFTISRDIAKTTVYLQMNSLNSEDTAVYYCAADERCTDRLIRPPTYWGQGTQVTVSSGGGGSGGGGSGGGGSDIQMTQTTSSLSASLGDRVTISCRASQDISKYLNWYQQKPDGTVKLLIYHTSRLHSGVPSRFSGSGSGTDYSLTISNLEQEDIATYFCQQGNTLPYTFGGGTKLEITKAGGGGSGGGGSGGGGSEVKLQESGPGLVAPSQSLSVTCTVSGVSLPDYGVSWIRQPPRKGLEWLGVIWGSETTYYNSALKSRLTIIKDNSKSQVFLKMNSLQTDDTAIYYCAKHYYYGGSYAMDYWGQGTSVTVSSGGGGSEQKLISEEDLGGGGSHHHHHH
notes: also called CD19-TCP; anti-M-ICAP VHH (M2339) - 3xGGGGS linker - anti-CD19 scFv (FMC063) - Myc and HIS
In the case of B4, the EC50 in experiment [2] turned out to be 17.1 nM; with CD19 expressed on cells, 40.9 nM.

For the origin of these results see patent US20230058519A1 (SHANGHAI CELL THERAPY GROUP, published 2023).
